We go through one protein from patent US20120064078.

The data set concerns the target Thr90 phosphorylated Hsp90α (pT90-Hsp90α), recombinant human Hsp90α phosphorylated by recombinant protein kinase A.

B1: recombinant human PP5 protein (protein phosphatase 5) (protein)
chain: MAMAEGERTECAEPPRDEPPADGALKRAEELKTQANDYFKAKDYENAIKFYSQAIELNPSNAIYYGNRSLAYLRTECYGYALGDATRAIELDKKYIKGYYRRAASNMALGKFRAALRDYETVVKVKPHDKDAKMKYQECNKIVKQKAFERAIAGDEHKRSVVDSLDIESMTIEDEYSGPKLEDGKVTISFMKELMQWYKDQKKLHRKCAYQILVQVKEVLSKLSTLVETTLKETEKITVCGDTHGQFYDLLNIFELNGLPSETNPYIFNGDFVDRGSFSVEVILTLFGFKLLYPDHFHLLRGNHETDNMNQIYGFEGEVKAKYTAQMYELFSEVFEWLPLAQCINGKVLIMHGGLFSEDGVTLDDIRKIERNRQPPDSGPMCDLLWSDPQPQNGRSISKRGVSCQFGPDVTKAFLEENNLDYIIRSHEVKAEGYEVAHGGRCVTVFSAPNYCDQMGNKASYIHLQGSDLRPQFHQFTAVPHPNVKPMAYANTLLQLGMM
On to B1, for which the “release of free phosphate (non-radioactive serine/threonine phosphatase assay)” value was “the release of free phosphate was also significantly increased, P value<0.005”.
